# Columns and labels:
# [1] = molecular target: Cx43CT CT (Rattus norvegicus) (UniProt P08050); settings: cited from earlier work
# Cx43CT_(236-382) (rat) = Cx43CT_(236-382) (rat) (UniProt P08050)
# Chain of Drebrin (Q16643 2-649): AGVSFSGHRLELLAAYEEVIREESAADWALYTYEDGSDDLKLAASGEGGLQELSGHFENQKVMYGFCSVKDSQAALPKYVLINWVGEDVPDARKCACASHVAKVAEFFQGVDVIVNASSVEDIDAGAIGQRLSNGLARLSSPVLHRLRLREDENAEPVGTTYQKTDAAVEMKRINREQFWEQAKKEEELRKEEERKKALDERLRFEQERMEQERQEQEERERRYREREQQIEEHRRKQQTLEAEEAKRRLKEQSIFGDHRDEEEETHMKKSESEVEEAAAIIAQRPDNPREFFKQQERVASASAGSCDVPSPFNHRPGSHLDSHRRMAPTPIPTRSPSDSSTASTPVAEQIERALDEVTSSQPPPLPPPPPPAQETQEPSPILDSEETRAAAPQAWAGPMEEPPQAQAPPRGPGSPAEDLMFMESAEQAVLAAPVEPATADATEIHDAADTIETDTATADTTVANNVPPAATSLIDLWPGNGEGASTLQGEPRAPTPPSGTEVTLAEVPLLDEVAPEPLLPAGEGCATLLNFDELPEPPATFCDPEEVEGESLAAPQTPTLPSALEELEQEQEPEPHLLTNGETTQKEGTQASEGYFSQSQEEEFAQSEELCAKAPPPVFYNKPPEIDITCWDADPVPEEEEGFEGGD
"inhibition of ERK2 phosphorylation of GST-Cx43CT (236-382) (in vitro kinase assay, Western blot with Cx43 pS279/S282 antibodies) in presence of CaM (~90% saturation) (Cx43CT_(236-382) (rat)) [%]","inhibition of Src phosphorylation of GST-Cx43CT (236-382) (in vitro kinase assay, Western blot with Cx43 pY265 antibody) in presence of CaM (~90% saturation) (Cx43CT_(236-382) (rat)) [%]",Substance,Kd [1] [µM]
–,–,Drebrin (from UniProt Q16643),300
30,90,calmodulin (from UniProt P0DP23 1-149) (natural protein),–
